Measured values published in patent US20180155451A1 (published 2018).

T1: FcγRIIb extracellular domain with C-terminal His tag (human, UniProt P31994 43-217)
T1 construct: extracellular domain; also called FcgRIIb; 2b; not shown: His tag at the C terminus
T1 sequence (looked up): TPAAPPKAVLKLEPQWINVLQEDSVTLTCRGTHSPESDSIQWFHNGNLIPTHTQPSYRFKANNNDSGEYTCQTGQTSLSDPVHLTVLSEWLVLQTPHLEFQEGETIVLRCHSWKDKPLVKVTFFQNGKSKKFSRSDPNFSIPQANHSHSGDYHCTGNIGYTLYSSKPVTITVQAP

T2: FcγRIIb extracellular domain with C-terminal His tag (human, UniProt P31994 43-217)
T2 construct: extracellular domain; Soluble receptor expressed in FreeStyle293 cells, used as analyte in Biacore; also called FcgRIIb; CD32B; not shown: His tag at the C terminus
T2 sequence (looked up): T1 sequence (looked up)

B1: GpH7-A5/GpH7-B3 variant S267_19Q/GpL16-k0 (antibody, human IgG1, kappa)
heavy 1: not shown
heavy 2: not shown
light: DIVMTQSPLSLPVTPGEPASISCQASESLVHSNRNTYLHWYLQKPGQSPQLLIYKVSNRFSGVPDRFSGSGSGTDFTLKISRVEAEDVGVYYCSQNTHVPPTFGQGTKVEIERTVAAPSVFIFPPSDEQLKSGTASVVCLLNNFYPREAKVQWKVDNALQSGNSQESVTEQDSKDSTYSLSSTLTLSKADYEKHKVYACEVTHQGLSSPVTKSFNRGEC
notes: Heterodimerized anti-glypican-3 IgG1; the substitution stands in the GpH7-B3 chain only; also called He Ab
B2: GpH7-A5/GpH7-B3 variant S298_06M/GpL16-k0 (antibody, human IgG1, kappa)
heavy 1: not shown
heavy 2: not shown
light: B1 light
notes: as for B1
B3: GpH7-A5/GpH7-B3 variant Y300_19Q/GpL16-k0 (antibody, human IgG1, kappa)
heavy 1: not shown
heavy 2: not shown
light: B1 light
notes: as for B1
B4: GpH7-A5/GpH7-B3 variant S298_08L/GpL16-k0 (antibody, human IgG1, kappa)
heavy 1: not shown
heavy 2: not shown
light: B1 light
notes: as for B1
B5: GpH7-A5/GpH7-B3 variant P271_06M/GpL16-k0 (antibody, human IgG1, kappa)
heavy 1: not shown
heavy 2: not shown
light: B1 light
notes: Heterodimerized anti-glypican-3 IgG1; substitution in only one H chain; also called P271M; He Ab
B6: GpH7-A5/GpH7-B3 variant P271_19Q/GpL16-k0 (antibody, human IgG1, kappa)
heavy 1: not shown
heavy 2: not shown
light: B1 light
notes: Heterodimerized anti-glypican-3 IgG1; substitution in only one H chain; also called P271Q; He Ab
B7: GpH7-A5/GpH7-B3 variant P271_15Y/GpL16-k0 (antibody, human IgG1, kappa)
heavy 1: not shown
heavy 2: not shown
light: B1 light
notes: Heterodimerized anti-glypican-3 IgG1; substitution in only one H chain; also called P271Y; He Ab
B8: GpH7-A5/GpH7-B3 variant P271_16H/GpL16-k0 (antibody, human IgG1, kappa)
heavy 1: not shown
heavy 2: not shown
light: B1 light
notes: Heterodimerized anti-glypican-3 IgG1; substitution in only one H chain; also called P271H; He Ab
B9: GpH7-A5/GpH7-B3 variant Q295_05P/GpL16-k0 (antibody, human IgG1, kappa)
heavy 1: not shown
heavy 2: not shown
light: B1 light
notes: Heterodimerized anti-glypican-3 IgG1; substitution in only one H chain; also called Q295P; He Ab
B10: GpH7-A5/GpH7-B3 variant Q295_04F/GpL16-k0 (antibody, human IgG1, kappa)
heavy 1: not shown
heavy 2: not shown
light: B1 light
notes: Heterodimerized anti-glypican-3 IgG1; substitution in only one H chain; also called Q295F; He Ab
B11: GpH7-A5/GpH7-B3 variant P271_12R/GpL16-k0 (antibody, human IgG1, kappa)
heavy 1: not shown
heavy 2: not shown
light: B1 light
notes: Heterodimerized anti-glypican-3 IgG1; substitution in only one H chain; also called P271R; He Ab
B12: GpH7-A5/GpH7-B3 variant P271_11K/GpL16-k0 (antibody, human IgG1, kappa)
heavy 1: not shown
heavy 2: not shown
light: B1 light
notes: Heterodimerized anti-glypican-3 IgG1; substitution in only one H chain; also called P271K; He Ab
B13: GpH7-A5/GpH7-B3 variant P271_14T/GpL16-k0 (antibody, human IgG1, kappa)
heavy 1: not shown
heavy 2: not shown
light: B1 light
notes: Heterodimerized anti-glypican-3 IgG1; substitution in only one H chain; also called P271T; He Ab
B14: GpH7-A5/GpH7-B3 variant P271_18N/GpL16-k0 (antibody, human IgG1, kappa)
heavy 1: not shown
heavy 2: not shown
light: B1 light
notes: Heterodimerized anti-glypican-3 IgG1; substitution in only one H chain; also called P271N; He Ab
B15: GpH7-A5/GpH7-B3 variant Q295_07I/GpL16-k0 (antibody, human IgG1, kappa)
heavy 1: not shown
heavy 2: not shown
light: B1 light
notes: Heterodimerized anti-glypican-3 IgG1; substitution in only one H chain; also called Q295I; He Ab
B16: GpH7-A5/GpH7-B3 variant Q295_02A/GpL16-k0 (antibody, human IgG1, kappa)
heavy 1: not shown
heavy 2: not shown
light: B1 light
notes: Heterodimerized anti-glypican-3 IgG1; substitution in only one H chain; also called Q295A; He Ab
B17: GpH7-A5/GpH7-B3 variant Q295_03V/GpL16-k0 (antibody, human IgG1, kappa)
heavy 1: not shown
heavy 2: not shown
light: B1 light
notes: Heterodimerized anti-glypican-3 IgG1; substitution in only one H chain; also called Q295V; He Ab
B18: GpH7-A5/GpH7-B3 variant P271_07I/GpL16-k0 (antibody, human IgG1, kappa)
heavy 1: not shown
heavy 2: not shown
light: B1 light
notes: Heterodimerized anti-glypican-3 IgG1; substitution in only one H chain; also called P271I; He Ab
B19: GpH7-A5/GpH7-B3 variant Q295_06M/GpL16-k0 (antibody, human IgG1, kappa)
heavy 1: not shown
heavy 2: not shown
light: B1 light
notes: Heterodimerized anti-glypican-3 IgG1; substitution in only one H chain; also called Q295M; He Ab
B20: GpH7-A5/GpH7-B3 variant P271_13S/GpL16-k0 (antibody, human IgG1, kappa)
heavy 1: not shown
heavy 2: not shown
light: B1 light
notes: Heterodimerized anti-glypican-3 IgG1; substitution in only one H chain; also called P271S; He Ab
B21: GpH7-A5/GpH7-B3 variant P271_20W/GpL16-k0 (antibody, human IgG1, kappa)
heavy 1: not shown
heavy 2: not shown
light: B1 light
notes: Heterodimerized anti-glypican-3 IgG1; substitution in only one H chain; also called P271W; He Ab

Target: T3, FcγRIIIa extracellular domain with C-terminal His tag (human, UniProt P08637 17-208)
T3 construct: extracellular domain; also called FcgRIIIa; 3a; not shown: His tag at the C terminus
Assay: SPR (Biacore), antibody captured on antigen peptide chip, FcγR as analyte; relative binding amount
Experimental: (§1) Analysis of interaction between objective antibody and the FcγR was carried out using Biacore T100 (GE Healthcare). HBS-EP+ (GE Healthcare) was used as the running buffer, and the measurement temperature was set to 25° C. Chips produced by immobilizing the antigen peptide by the amine coupling method to a Series S Sencor Chip CM5 (GE Healthcare), or alternatively, chips produced by allowing preliminarily biotinylated antigen peptides to interact with and immobilize onto a Series S Sensor Chip SA (certified) (GE Healthcare) were used. Antibodies of interest were captured onto an antigen peptide-immobilized chip, and allowed to interact to each FcγR diluted with running buffer. To regenerate and repeatedly use the chip, the antibodies captured on the chip were washed off by reacting 10 mM glycine-HCl, pH 1.5.
(§2) The FcγR-binding activity of each antibody was assessed primarily using as an indicator the FcγR-binding activity and dissociation constant for FcγR.

T3 sequence (P08637 17-208): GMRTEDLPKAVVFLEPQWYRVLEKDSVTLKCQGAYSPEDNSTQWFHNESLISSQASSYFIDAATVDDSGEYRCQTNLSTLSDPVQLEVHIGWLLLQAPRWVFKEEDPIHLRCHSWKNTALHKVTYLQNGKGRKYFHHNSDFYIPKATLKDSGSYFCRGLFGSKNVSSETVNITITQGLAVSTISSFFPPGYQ

He/Con_3a | Binder
65 % of GpH7-A5/GpH7-B3/GpL16-k0 (=100) | B1
92.6 % of GpH7-A5/GpH7-B3/GpL16-k0 (=100) | B2
96.3 % of GpH7-A5/GpH7-B3/GpL16-k0 (=100) | B3
73.5 % of GpH7-A5/GpH7-B3/GpL16-k0 (=100) | B4

Target: T1, FcγRIIb extracellular domain with …
Assay: as above
Experimental: as §1, §2

He/Con_2b | Binder
218 % of GpH7-A5/GpH7-B3/GpL16-k0 (=100) | B1
102 % of GpH7-A5/GpH7-B3/GpL16-k0 (=100) | B2
108 % of GpH7-A5/GpH7-B3/GpL16-k0 (=100) | B3
108 % of GpH7-A5/GpH7-B3/GpL16-k0 (=100) | B4

Target: T4, FcγRIa extracellular domain with C-terminal His tag (human, UniProt P12314 16-292)
T4 construct: extracellular domain; Soluble receptor expressed in FreeStyle293 cells, used as analyte in Biacore; also called FcgRI; CD64; not shown: His tag at the C terminus
Assay: SPR (Biacore), antibody captured via antigen peptide, FcγR as analyte; binding relative to GpH7-A5/GpH7-B3/GpL16-k0 = 100

T4 sequence (P12314 16-292): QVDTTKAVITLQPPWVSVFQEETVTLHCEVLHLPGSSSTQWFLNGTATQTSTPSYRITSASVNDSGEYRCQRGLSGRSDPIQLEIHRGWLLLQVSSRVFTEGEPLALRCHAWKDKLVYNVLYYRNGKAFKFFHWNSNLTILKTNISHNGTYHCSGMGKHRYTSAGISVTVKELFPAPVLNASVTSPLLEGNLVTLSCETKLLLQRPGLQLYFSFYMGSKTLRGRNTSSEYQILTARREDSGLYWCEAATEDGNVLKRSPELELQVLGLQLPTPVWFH

He/Con_1a | Binder
102 % of control (GpH7-A5/GpH7-B3/GpL16-k0 = 100) | B5
103 % of control (GpH7-A5/GpH7-B3/GpL16-k0 = 100) | B6
103 % of control (GpH7-A5/GpH7-B3/GpL16-k0 = 100) | B7
102 % of control (GpH7-A5/GpH7-B3/GpL16-k0 = 100) | B8
103 % of control (GpH7-A5/GpH7-B3/GpL16-k0 = 100) | B9
102 % of control (GpH7-A5/GpH7-B3/GpL16-k0 = 100) | B10
102 % of control (GpH7-A5/GpH7-B3/GpL16-k0 = 100) | B11
103 % of control (GpH7-A5/GpH7-B3/GpL16-k0 = 100) | B12
102 % of control (GpH7-A5/GpH7-B3/GpL16-k0 = 100) | B13
103 % of control (GpH7-A5/GpH7-B3/GpL16-k0 = 100) | B14
103 % of control (GpH7-A5/GpH7-B3/GpL16-k0 = 100) | B15
104 % of control (GpH7-A5/GpH7-B3/GpL16-k0 = 100) | B16
104 % of control (GpH7-A5/GpH7-B3/GpL16-k0 = 100) | B17
102 % of control (GpH7-A5/GpH7-B3/GpL16-k0 = 100) | B18
104 % of control (GpH7-A5/GpH7-B3/GpL16-k0 = 100) | B19
102 % of control (GpH7-A5/GpH7-B3/GpL16-k0 = 100) | B20
103 % of control (GpH7-A5/GpH7-B3/GpL16-k0 = 100) | B21

Target: T2, FcγRIIb extracellular domain with …
Assay: as above

He/Con_2b | Binder
77.5 % of control (GpH7-A5/GpH7-B3/GpL16-k0 = 100) | B5
88.6 % of control (GpH7-A5/GpH7-B3/GpL16-k0 = 100) | B6
52.3 % of control (GpH7-A5/GpH7-B3/GpL16-k0 = 100) | B7
67.9 % of control (GpH7-A5/GpH7-B3/GpL16-k0 = 100) | B8
67.5 % of control (GpH7-A5/GpH7-B3/GpL16-k0 = 100) | B9
64.7 % of control (GpH7-A5/GpH7-B3/GpL16-k0 = 100) | B10
86.5 % of control (GpH7-A5/GpH7-B3/GpL16-k0 = 100) | B11
90.2 % of control (GpH7-A5/GpH7-B3/GpL16-k0 = 100) | B12
95.4 % of control (GpH7-A5/GpH7-B3/GpL16-k0 = 100) | B13
93.3 % of control (GpH7-A5/GpH7-B3/GpL16-k0 = 100) | B14
84.3 % of control (GpH7-A5/GpH7-B3/GpL16-k0 = 100) | B15
79.7 % of control (GpH7-A5/GpH7-B3/GpL16-k0 = 100) | B16
75.7 % of control (GpH7-A5/GpH7-B3/GpL16-k0 = 100) | B17
76.8 % of control (GpH7-A5/GpH7-B3/GpL16-k0 = 100) | B18
90.4 % of control (GpH7-A5/GpH7-B3/GpL16-k0 = 100) | B19
87.6 % of control (GpH7-A5/GpH7-B3/GpL16-k0 = 100) | B20
58.1 % of control (GpH7-A5/GpH7-B3/GpL16-k0 = 100) | B21
